Numbering of substitutions follows the chain as printed.
Experiments:
[1] = molecular target: T1, MS2 bacteriophage coat protein (MS2 bacteriophage, UniProt P03612 2-130); test: SPR (Biacore), FIG. 2D
T1 sequence: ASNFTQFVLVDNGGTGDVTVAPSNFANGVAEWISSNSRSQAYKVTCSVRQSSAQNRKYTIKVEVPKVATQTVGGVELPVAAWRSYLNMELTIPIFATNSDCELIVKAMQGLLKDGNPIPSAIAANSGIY

[2] = molecular target: T1, MS2 bacteriophage coat protein; test: SPR (Biacore T200), MS2 immobilised on CM5 chip, scFv in solution
Protocol: (§1) Binding affinity measurements for the antibody variants were obtained by surface immobilization of antigen. Specifically, kinetic analysis was performed using a Biacore T200 (GE Healthcare, Waukesha, Wis.). […] For full-length IgGs, a capture assay was used to allow accurate assessment of antibody affinity. […] Surfaces were regenerated using 3 M MgCl₂. Association and dissociation kinetic values (kₐ and kd) were determined from a best fit of the data with the 1:1 Langmuir global fitting procedure to sensorgrams using the Biacore T200 Evaluation Software, version 1.0.

[3] = molecular target: T1, MS2 bacteriophage coat protein; test: SPR (Biacore), FIG. 2C
[4] = molecular target: T1, MS2 bacteriophage coat protein; test: SPR (Biacore T200), IgG captured on anti-human IgG Fc, MS2 antigen flowed over
Protocol: as §1

[5] = molecular target: T1, MS2 bacteriophage coat protein; test: SPR (Biacore), FIG. 7C
[6] = molecular target: T1, MS2 bacteriophage coat protein; test: SPR (Biacore)
[7] = molecular target: T1, MS2 bacteriophage coat protein; test: SPR (Biacore), FIG. 3D

B1: mouse anti-MS2 scFv (scFv)
scFv: EVKLVESGGGLVKPGGSLKLSCAASGFTFSSYAMSWVRQTPEKRLEWVATISTGGGYTYFPDSVKGRFTISRDNAKNALYLQMKSLRSEDTAMYYCARQGDFGDWYFDVWGAGTTVTVSSGGGGSGGGGSGGGGSDVLMTQTPLSLPVSLGDQASISCRSSQSLVHSNGNTYLHWYLQKPGQSPKLLIYKVSNRFSGVPDRFSGSGSGTDFTLKISRVEAEDLGVYFCSQSTHVPWTFGGGTKLEIK
B1 was tested, and the koff [1] was 0.008 s⁻¹, the kon [1] was 280000 M⁻¹ s⁻¹ and the Kd [2] was 29 nM.

B2: APE443 (antibody, V domains shown)
VH: EVQLLESGGGLVQPGGSLRLSCAASGFTFSSYAMSWVRQAPGKGLEWVSTISTGGGYTYFPDSVKGRFTISRDNSKNTLYLQMNSLRAEDTAVYYCARQGDFGDWYFDVWGAGTTVTVSS
VL: DVVMTQSPLSLPVTLGQPASISCRSSQSLVHSNGNTYLHWFQQRPGQSPRRLIYKVSNRFSGVPDRFSGSGSGTDFTLKISRVEAEDVGVYYCSQSTHVPWTFGGGTKLEIK
notes: also called initial CDR-grafted antibody; initial grafted antibody
In the case of B2, the Kd [3] is reported as 170 nM, the koff [3] is reported as 0.011 s⁻¹ and the kon [3] is reported as 68000 M⁻¹ s⁻¹. It also gave a Kd [4] of 84 nM.

B3: APE1027 (antibody, V domains shown)
VH: B2 VH with L5V, R19I, A23V, S49C, F60S, I70C
VL: B2 VL with M4L, P12A, T14L, Q27E, S32T, F41Y, R51L, Y92F, H98R
B3 gave a koff [5] of 8.5e-05 s⁻¹, a kon [5] of 97000 M⁻¹ s⁻¹ and a Kd [4] of 0.88 nM.

B4: APE849 (antibody, V domains shown)
VH: B2 VH with F60S
VL: B2 VL with Q27E, S32T, F41Y, R51L, Y92F, H98R
For B4, the “fold improvement in affinity (reference not given)” value [6] was 40 fold and the Kd [4] was 2 nM.

B5: APE1052 (antibody, V domains shown)
VH: B2 VH
VL: B2 VL with Q27E, S32T, F41Y, R51L, Y92F, H98R
In the case of B5, the “fold improvement in KD over the initial grafted antibody (APE443)” value [6] is reported as 20 fold and the Kd [4] is reported as 4.2 nM.

B6: APE850 (antibody, V domains shown)
VH: B2 VH with A23V, F60S
VL: B2 VL with Q27E, S32T, F41Y, R51L, Y92F, H98R
In the case of B6, the “fold improvement in KD over the initial grafted antibody (APE443)” value [6] is reported as 85 fold, the “fold improvement in ka over the initial grafted antibody (APE443)” value [6] is reported as 12 fold and the “fold improvement in kd over the initial grafted antibody (APE443)” value [6] is reported as 7 fold. For the same binder, the Kd [4] was 0.985 nM.

B7: APE830 (antibody, V domains shown)
VH: B2 VH with A23V
VL: B2 VL with Q27E, S32T, F41Y, R51L, Y92F, H98R
For B7, the Kd [4] was 1.6 nM.

B8: APE556 (antibody, V domains shown)
VH: B2 VH
VL: B2 VL with F41Y, R51L, Y92F
B8 gave a koff [7] of 0.0055 s⁻¹, a kon [7] of 210000 M⁻¹ s⁻¹ and a Kd [4] of 27 nM.

B9: APE565 (antibody, V domains shown)
VH: B2 VH with S49C, I70C
VL: B2 VL with F41Y, R51L, Y92F
In the case of B9, the “fold improvement in KD over APE556” value [6] is reported as 4 fold and the Kd [4] is reported as 7 nM.

B10: APE1051 (antibody, V domains shown)
VH: B2 VH with A23V
VL: B2 VL with F41Y, R51L, Y92F
Work on B10 yielded a Kd [4] of 15.1 nM.

Source: patent US20140079691A1 (ANAPTYSBIO, published 2014)
